The series has as its system MS2 coat protein. Put plainly: apparent KD of MS2 coat protein; higher = weaker reporter binding. The note with it: Eterna round: R107. The essentials:
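Designed RNA switches were made by on-chip transcription from Illumina sequencing clusters and then titrated with SNAP-549-labelled MS2 coat protein. Twofold steps ran from 0.7 or 1.5 nM to 3 µM, each lasting 0.8–1.5 h early and 10–20 min late, in 100 mM Tris-HCl pH 7.5, 80 mM KCl, 4 mM MgCl2, without or with constant ligand. Apparent KD is the per-design median of normalised cluster binding-curve fits.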

Where [1] appears, read: input ligand: theophylline 20 uM.
The mark [2] stands for this setting: input ligand: theophylline 2 mM.
The mark [3] stands for this setting: input ligand: tryptophan 2.4 mM.

As for “UGUAUGGACUGAAGGAGCGGGUAAUAAACUUGAGGAUCACCCAGGUAAUAGGCGAAAGCCACCCAGGUAGGUCGCAGUCCAUACU”, the “apparent KD of MS2 coat protein” value reads like this: (input ligand: arginine 13.2 mM) 0.0327 µM; (input ligand: none) 0.0285 µM; under setting [1], 0.0389 µM; under setting [2], 0.023 µM; under setting [3], 0.0256 µM.

As for “UGUAUGGACUGAAGGAGCGGGUUGAUACCAUGAGGAUCACCCAUGGAAAAGGCGAAAGCCGCCCAGGUAGGUCGCAGUCCAUACU”, the “apparent KD of MS2 coat protein” value by setting is: (input ligand: arginine 13.2 mM) 0.014 µM; (input ligand: none) 0.0129 µM; under setting [1], 0.0197 µM; under setting [2], 0.0184 µM; under setting [3], 0.0166 µM.

As to “UGUAUGGGAACAUGAGGAUCACCCAUGUGGCGAGGACCGGUACGGCCGCCACUCGAGCAGCAAGCGUGUAUGACGCUGCUGCAUG [ss-trypA-0mod]”, the “apparent KD of MS2 coat protein” value is 0.225 µM (input ligand: arginine 13.2 mM); 0.312 µM (input ligand: none); 0.377 µM under setting [1]; 0.324 µM under setting [2]; 0.136 µM under setting [3].

In the case of “UGUAUGUGAUCUGAUACCAGACGUGUAAACCUGAGGAUCACCCUGGUAAGGCGAAAGCCAGUCCCUUGGCAGCAGAUCGCAUACU”, the “apparent KD of MS2 coat protein” value reads like this: (input ligand: arginine 13.2 mM) 0.0477 µM; (input ligand: none) 0.049 µM; under setting [1], 0.04 µM; under setting [2], 0.0215 µM; under setting [3], 0.05 µM.

As for “UGUAUGUGAUCUGAUACCAGAGUUGAUAAUCUGAGGAUCACCCUGGUAAGGCGAAAGCCGCUCCCUUGGCAGCAGAUCGCAUACU”, the “apparent KD of MS2 coat protein” value is, setting by setting: (input ligand: arginine 13.2 mM) 0.526 µM; (input ligand: none) 0.946 µM; under setting [1], 0.969 µM; under setting [2], 0.244 µM; under setting [3], 0.884 µM.

With “UGUAUGUGAUCUGAUACCAGUCCAACUGGUAAAGCAUGAGGAUCACCCAUGCAAAAUUGGGACCCUUGGCAGCAGAUCGCAUACU”, the “apparent KD of MS2 coat protein” value is, setting by setting: (input ligand: arginine 13.2 mM) 0.167 µM; (input ligand: none) 0.264 µM; under setting [1], 0.213 µM; under setting [2], 0.0281 µM; under setting [3], 0.267 µM.

“UGUCAAUCGCCGGAUACCAGCCUAACUGAAGGAAAUCUAAACAUGAGGAUCACCCAUGUAGGCCCUUGGCAGCCGAGUAAGUACA [theeternabot_exclusion_MS2_Theo_B_15]”: the “apparent KD of MS2 coat protein” value (input ligand: arginine 13.2 mM) was found to be 0.0339 µM, the “apparent KD of MS2 coat protein” value under setting [1] was 0.0654 µM and the “apparent KD of MS2 coat protein” value under setting [3] was found to be 0.0357 µM.

Turning to “UGUCGCAGGUUAGAUACCAGCGAGGCGCGGGUAAAUGUUCACAUGAGGAUCACCCAUGUUCGCCCUUGGCAGCUAGUAGGCAUAA [theeternabot_exclusion_MS2_Theo_B_36]”, the “apparent KD of MS2 coat protein” value came out at 0.0239 µM (input ligand: arginine 13.2 mM), 0.034 µM under setting [1] and 0.0273 µM under setting [3].

On to “UGUCGUAGACAUGAGGAUCACCCAUGUCCACGAGGACCGGUACGGCCGCCACUCGGGAUAUAAACCGUUACGGGUGGGUGGUGUU [Maarlainin]”, for which the “apparent KD of MS2 coat protein” value by setting is: (input ligand: arginine 13.2 mM) 0.016 µM; under setting [1], 0.026 µM; under setting [2], 0.0212 µM.

“UGUCUAGUAAUCGAUACCAGCUACAUGAGGAUCACCCAUGUAGUUCGAACGGCCGCAUGUAGCCCUUGGCAGCGAAUAGUUACAU [Onbitelege]”: the “apparent KD of MS2 coat protein” value reads like this: (input ligand: arginine 13.2 mM) 0.0142 µM; under setting [1], 0.0328 µM; under setting [3], 0.0187 µM.

In the case of “UGUGCAUGAGUUGGAAAAGCUCAUGGGCAUCGAGGACCGGUACGGCCGCCACUCGGCUGUACAUGAGGAUCACCCAUGUCAGGGU [#1 Same State - Tryptophan A Attempt #23 (HarryS)]”, the “apparent KD of MS2 coat protein” value (input ligand: arginine 13.2 mM) came out at 0.082 µM; the “apparent KD of MS2 coat protein” value (input ligand: none) was 0.288 µM; the “apparent KD of MS2 coat protein” value under setting [1] was 0.141 µM; the “apparent KD of MS2 coat protein” value under setting [2] is 0.17 µM; the “apparent KD of MS2 coat protein” value under setting [3] came out at 0.891 µM.

Take “UUAAUCAUAUUAGAAAACUAAUAUGCAGAAGGAGCGUGAUAAAACACAGGUAGGUCGCUGAAGGGAACAUGAGGAUCACCCAUGU [AstrosSSArgA#8]”: the “apparent KD of MS2 coat protein” value runs as follows: (input ligand: arginine 13.2 mM) 0.0265 µM; (input ligand: none) 0.0257 µM; under setting [1], 0.0327 µM; under setting [2], 0.033 µM; under setting [3], 0.026 µM.

Take “UUAAUCUAUAAUGAAAACAUUAUAGCAGAAGGAGCGUGAUAAAACACAGGUAGGUCGCUGAAGGGAACAUGAGGAUCACCCAUGU [AstrosSSArgA#12]”: the “apparent KD of MS2 coat protein” value by setting is: (input ligand: arginine 13.2 mM) 0.0243 µM; (input ligand: none) 0.0287 µM; under setting [1], 0.0405 µM; under setting [2], 0.0394 µM; under setting [3], 0.0236 µM.

Take “UUAAUCUUGGAUGAAAACAUUUAAGCAGAAGGAGCGUGAUAAAACACAGGUAGGUCGCUGAAGGGAACAUGAGGAUCACCCAUGU [AstrosSSArgA#15]”: the “apparent KD of MS2 coat protein” value reads like this: (input ligand: arginine 13.2 mM) 0.0225 µM; (input ligand: none) 0.038 µM; under setting [1], 0.0288 µM; under setting [2], 0.0317 µM; under setting [3], 0.0329 µM.

For “UUAAUCUUUAUUGAAAACAAUAAAGCAGAAGGAGCGUGAUAAAACACAGGUAGGUCGCUGAAGGGAACAUGAGGAUCACCCAUGU [AstrosSSArgA#13]”, the “apparent KD of MS2 coat protein” value reads like this: (input ligand: arginine 13.2 mM) 0.0364 µM; (input ligand: none) 0.0266 µM; under setting [1], 0.032 µM; under setting [2], 0.0351 µM; under setting [3], 0.0241 µM.

For “UUAAUGAUAUAUCAUAUGAUAUAUCCAGAAGGAGCGUCAUAAAUGGCAGGUAGGUCGCUGAAGGCAACAUGAGGAUCACCCAUGU [#16 Same State - Arginine A]”, the “apparent KD of MS2 coat protein” value by setting is: (input ligand: arginine 13.2 mM) 0.0201 µM; (input ligand: none) 0.0286 µM; under setting [1], 0.0446 µM; under setting [2], 0.0326 µM; under setting [3], 0.0244 µM.

Take “UUAGUAACGACGGCCGCCACUGAUUUUGGACAUGAGGAUCACCCAUGUAAAGAUCCUAGAAUGGUCAGGACCGGGUCUGAUAAUG [Exclusion Tryptophane B GF4]”: the “apparent KD of MS2 coat protein” value reads like this: (input ligand: arginine 13.2 mM) 0.035 µM; (input ligand: none) 0.0353 µM; under setting [1], 0.04 µM; under setting [2], 0.054 µM; under setting [3], 0.0644 µM.

In the case of “UUAUAUAUACAUGAGGAUCACCCAUGUGAUACCAGCCUGGAAACAGGCCCUUGGCAGCACAAAUACUCCAGAAAAUAUAAUAAAU [MAT - Exclusion Theophlline A - Mod of Eli - D4]”, the “apparent KD of MS2 coat protein” value is, setting by setting: (input ligand: arginine 13.2 mM) 0.0261 µM; under setting [1], 0.0568 µM; under setting [3], 0.0278 µM.

Source of the values: the supplement of paper PMC9170038.
